Assays:
[1] = biological target: Coproheme decarboxylase from Geobacillus stearothermophilus (HemQ), His-tag completely cleaved (Geobacillus stearothermophilus); assay: SEC; Superdex 200 10/300, 1 ml/min, 50 mM HEPES pH 7.5, 100 mM NaCl; elution volume compared with the mass of a pentamer
[2] = biological target: Coproheme decarboxylase from Geobacillus stearothermophilus (HemQ), His-tag completely cleaved (Geobacillus stearothermophilus); assay: cryo-EM structure; single particle reconstruction, purified protein on glow-discharged gold Quantifoil R 1.2/1.3 grids, 50 mM HEPES pH 7.5, 100 mM NaCl; C5 and C1 symmetry
[3] = biological target: Coproheme decarboxylase from Geobacillus stearothermophilus (HemQ), His-tag partially cleaved (Geobacillus stearothermophilus); assay: SEC; Superdex 200 10/300, 1 ml/min, 50 mM HEPES pH 7.5, 100 mM NaCl; elution volume compared with the mass of a pentamer
[4] = biological target: Coproheme decarboxylase from Geobacillus stearothermophilus (HemQ), His-tag partially cleaved (Geobacillus stearothermophilus); assay: cryo-EM structure; single particle reconstruction, purified protein on glow-discharged gold Quantifoil R 1.2/1.3 grids, 50 mM HEPES pH 7.5, 100 mM NaCl; C5 and C1 symmetry
[5] = biological target: Coproheme decarboxylase from Geobacillus stearothermophilus (HemQ), His-tag present in all copies (Geobacillus stearothermophilus); assay: SEC; Superdex 200 10/300, 1 ml/min, 50 mM HEPES pH 7.5, 100 mM NaCl; elution volume compared with the mass of a pentamer
[6] = biological target: Coproheme decarboxylase from Geobacillus stearothermophilus (HemQ), His-tag present in all copies (Geobacillus stearothermophilus); assay: cryo-EM structure; single particle reconstruction, purified protein on glow-discharged gold Quantifoil R 1.2/1.3 grids, 50 mM HEPES pH 7.5, 100 mM NaCl; C5 and C1 symmetry

“Coproheme decarboxylase from Geobacillus stearothermophilus (HemQ), His-tag completely cleaved (enzyme)” showed a stoichiometry N [1] of 5 and a stoichiometry N [2] of 5.

“Coproheme decarboxylase from Geobacillus stearothermophilus (HemQ), His-tag partially cleaved (enzyme)” gave a stoichiometry N [3] of 5 and a stoichiometry N [4] of 5.

Substance “Coproheme decarboxylase from Geobacillus stearothermophilus (HemQ), His-tag present in all copies (enzyme)” has a stoichiometry N [5] of 5 and a stoichiometry N [6] of 5.

From paper PMC9619061
